{"source": "patent US20250259704A1", "about": "“SYSTEMS AND METHODS FOR CELL-FREE ITERATIVE SITE SATURATION MUTAGENESIS AND ITS APPLICATION FOR THE DIRECTED EVOLUTION OF ENZYMES CATALYZING UNNATURAL REACTIONS” (Northwestern University, priority 2022, published 2025)", "key": {"amide synthetase McbA [1]": {"test_system": "amide synthetase McbA", "assay": "High-throughput amidation assay with crude CFPS-expressed McbA variants (hot spot screen, ISM)", "assay_type": "biochemical, Marinactinospora thermotolerans", "conditions": "final screening conditions; moclobemide synthesis; 25 mM ATP, acid, amine, 10% v/v DMSO, 37° C. 16 hours", "procedure": "Amide products (along with acid substrates and some adenylated acid intermediates) were analyzed using an Agilent G6125B Single Quadrupole LC/MSD system equipped with an electrospray ionization source set to positive ionization mode. The quenched samples were centrifuged for 10 min at 4,500×g to remove precipitated proteins. A separate 384-well plate for sample injection into the HPLC-MS was prepared by diluting 5 μL of the quenched samples with 25 μL of methanol using the Integra VIAFLO. Trace amounts of compounds were detected using MS, while many compounds were present in high enough concentration to quantify by diode array detector (DAD) at 254 nm. Compounds were separated on a Luna C18 Column (Phenomenex 00D-4251-B0) using mobile phases (A) H2O with 0.1% formic acid and (B) Acetonitrile. The general method for chromatographic separation was carried out using the following gradients at a constant flow rate of 0.5 mL/min: 0 min 5% B; 1 min 5% B; 4 min 95% B; 4.5 min 95% B; 5 min 5% B. For the MS, capillary voltage was set at 3 kV, and nitrogen gas was used for nebulizing (35 psig) and drying (12 l/min, 350° C.). The MS was calibrated using Tuning Mix (Agilent G2421-60001) before measurements were taken. […] LC-MS data were collected and analyzed using Agilent OpenLab CDS ChemStation software. The product yield was calculated by dividing the DAD peak area for the amide product by the sums of the peak areas of both the amide and the acid substrate.\nAll high-throughput assays (hot spot screen, iterative site saturation mutagenesis, substrate scope, ML predictions validation, and ML prediction exploration) were assembled in 384-well plates (Bio-Rad) using an Integra VIAFLO liquid handling robot. […] The amidation assay was initiated by adding 3-μL of crude CFPS reaction containing an expressed McbA variant, with final concentrations of 25 mM ATP, 25 mM acid, 25 mM amine, 10% v/v DMSO, and ˜1 μM of enzyme (determined by ^14C-leucine incorporation using previously described protocols^66). […]"}, "[2]": {"assay": "Protein melting temperature by circular dichroism", "assay_type": "physicochemical", "procedure": "Protein melting temperature was determined using a Jasco J-810 circular dichroism spectrophotometer with a 10 mm path length cuvette monitored at 222 nm. McbA samples were first buffer exchanged into a 1× phosphate buffered saline solution, pH 7.4, and diluted to 0.2-0.4 mg/mL."}, "amide synthetase McbA [3]": {"test_system": "amide synthetase McbA", "assay": "Apparent steady-state kinetics, amide bond formation coupled to NADH oxidation", "assay_type": "biochemical, Marinactinospora thermotolerans", "conditions": "kcat/KM for the amine, versus wt-McbA", "procedure": "McbA apparent kinetics for the amine pair of moclobemide (4-(2-aminoethyl)morpholine) were determined by enzymatically coupling amide bond formation (and the concomitant release of AMP from the acyl-AMP intermediate by its substitution with the amine) with the oxidation of NADH, as shown in FIGS. 7A-7B. Reactions contained 100 mM MOPS-KOH pH 7.8, 5 mM MgCl2, 2.5 mM phosphoenolpyruvate, 5 mM ATP, 0.3 mM NADH, 50 mM 4-chlorobenzoic acid, 15 U/mL pyruvate kinase and lactate dehydrogenase enzyme mix (Sigma-Aldrich P0294), 25 U/mL myokinase (Sigma-Aldrich 475941), and various concentrations (50-200 μg/mL) of the studied McbA variant. As the acid here (4-chlorobenzoic acid) has poor solubility in water and was dissolved in DMSO, the final reactions contained 10% v/v DMSO (equivalent to our amidation screens). 180-μL reactions were first equilibrated at 30° C. for 3 minutes and then initiated by adding 20-μL of amine. The initial velocity was determined for different concentrations of amine (0.1 mM-50 mM) by measuring NADH absorbance at 340 nm on a Cary 60 UV-Vis (Agilent). Data were collected and analyzed using the Cary WinUV Kinetics Application software (Agilent). Michaelis-Menten graphs were plotted in GraphPad Prism and fit using the default Michaelis-Menten non-linear regression analysis tool."}}, "data": [{"molecule": "qm-McbAmoclobemide: quadruple mutant of McbA from ISM campaign for moclobemide, SEQ ID NO: 145 (protein) MEKKIWSHPQFEKGGSGENLYFQGGYARRVMDGIGEVAVTGAGGSVTGARLRHQVRLLAHALTEAGIPPGRGVACLHANTWRAIALRLAVQAIGCHYVGLRPTAAVTEQARAIAAADSAALVFEPSVEARAADLLERVSVPVVLSLGPTSRGRDILAASVPEGTPLRYREHPEGIASVAFTSGTTGTPKGVAHSSTAMSACVDAAVSMYGRGPWRFLIPSPLSDLGGELAQCTLATGGTVVLLEEFQPDAVLEAIERERATHVFLAPNWLYQLAEHPALPRSDLSSLRRVVYGGAPAVPSRVAAARERMGAVLMQNYGTQEAFFIAALTPDDHARRELLTAVGRPLPHVEVEIRDDSGGTLPRGAVGEVWVRSPMTMSGYWRDPERTAQVLSGGWLRTGDVGTFDEDGHLHLTDRLQDIIIVEAYNVYSLRVEHVLTEHPDVRAAAVVGVPDPDSGEAVCAAVVVADGADPDPEHLRALVRDHLGDLHVPRRVEFVRSIPVTPAGKPDKVKVRTWFTD", "values": [{"measurement": "conversion (yield) of moclobemide", "setting": "amide synthetase McbA [1]", "value": 96, "unit": "%"}, {"measurement": "melting point change versus wt-McbA", "setting": "[2]", "value": "did not significantly change"}, {"measurement": "increase in catalytic efficiency from wt-McbA", "setting": "amide synthetase McbA [3]", "value": 42, "unit": "fold"}]}]}
